Assay results taken from article PMC3247843.

Target: soluble human FcRn (human) (UniProt P55899)
Test: SPR

UniProt P55899, sequence (P55899 24-297, chain 1 of 2): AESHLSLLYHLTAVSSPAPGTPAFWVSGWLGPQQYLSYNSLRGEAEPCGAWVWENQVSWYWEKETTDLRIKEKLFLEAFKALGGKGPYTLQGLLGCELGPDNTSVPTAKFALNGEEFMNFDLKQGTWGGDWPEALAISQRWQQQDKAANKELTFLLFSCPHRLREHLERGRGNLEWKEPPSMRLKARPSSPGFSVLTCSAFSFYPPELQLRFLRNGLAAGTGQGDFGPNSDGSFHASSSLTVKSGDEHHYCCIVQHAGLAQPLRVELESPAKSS
UniProt P55899, sequence (P61769 21-119, chain 2 of 2, further chain): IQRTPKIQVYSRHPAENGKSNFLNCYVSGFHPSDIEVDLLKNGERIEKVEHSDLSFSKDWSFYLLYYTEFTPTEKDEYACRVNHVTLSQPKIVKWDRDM

recombinant human IgG1–H435R (antibody)
KD relative to WT IgG1 (% higher than the KD of WT IgG1): 50

recombinant human IgG3 (anti-Streptococcus pneumoniae serotype 6) (antibody)
KD relative to WT IgG1 (fold of the KD of WT IgG1): 2
